Test results reported in the supplement of paper PMC10567573.

B1: SERPINB5 (parent)
chain: FPESETKECPFRVNKVCGAACSSK

Variants of: B1
Assay: protein stability index of a GFP-peptide fusion (GPS, HEK-293T) (PSI 1-6); higher = more stable
Settings: c terminus: a fixed tail appended
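Note: lentivirally expressed fusions sorted by FACS into six bins by GFP to DsRed ratio, PSI derived from sequencing read proportions per bin multiplied by bin number.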

Variant	protein stability index
FPESEAKECPFRVNKVCGAACSSK [T6A]	2.68
FPESEYKECPFRVNKVCGAACSSK [T6Y]	2.28
FPESECKECPFRVNKVCGAACSSK [T6C]	2.38
FPESEQKECPFRVNKVCGAACSSK [T6Q]	2.95
FPESEVKECPFRVNKVCGAACSSK [T6V]	3.18
FPESENKECPFRVNKVCGAACSSK [T6N]	2.2
FPESEKKECPFRVNKVCGAACSSK [T6K]	2.28
FPESEGKECPFRVNKVCGAACSSK [T6G]	2.09
FPESETKECPFRVNKVCGIACSSK [A19I]	2.63
FPESETKECPFRVNKVCGFACSSK [A19F]	2.02
FPESETKECPFRVNKVCGRACSSK [A19R]	2.52
FPESETKECPFRVNKVCGMACSSK [A19M]	2.36
FPESETKECPFRVNKVCGVACSSK [A19V]	2.41
FPESETKECPFRVNKVCGKACSSK [A19K]	2.51
FPESETKECPFRVNKVCGSACSSK [A19S]	2.92
FPESVTKECPFRVNKVCGAACSSK [E5V]	2.52
FPESATKECPFRVNKVCGAACSSK [E5A]	1.88
FPESYTKECPFRVNKVCGAACSSK [E5Y]	1.87
FPESGTKECPFRVNKVCGAACSSK [E5G]	1.68
FPESRTKECPFRVNKVCGAACSSK [E5R]	1.9
FPESKTKECPFRVNKVCGAACSSK [E5K]	1.67
FPESTTKECPFRVNKVCGAACSSK [E5T]	2.11
FPESHTKECPFRVNKVCGAACSSK [E5H]	1.4
FPESPTKECPFRVNKVCGAACSSK [E5P]	3.05

Variant	protein stability index
FPESETKECPFRVNKVCGAACPSK [S22P]	2.67
FPESETKECPFRVNKVCGAACRSK [S22R]	2.36
FPESETKECPFRVNKVCGAACLSK [S22L]	1.93
FPESETKECPFRVNKVCGAACFSK [S22F]	1.66
FPESETKECPFRVNKVCGAACHSK [S22H]	2.55
FPESETKECPFRVNKVCGAACCSK [S22C]	2.27
FPESETKECPFRVNKVCGAACKSK [S22K]	2.39
FPESETKECPFRVNKVCGAACISK [S22I]	2.27
FPESETKECPFRVNKVCGAACNSK [S22N]	2.62
FPESETKECPFRVNKVCGAACYSK [S22Y]	2.46
MPESETKECPFRVNKVCGAACSSK [F1M]	4.85
QPESETKECPFRVNKVCGAACSSK [F1Q]	4.5
EPESETKECPFRVNKVCGAACSSK [F1E]	5.05
DPESETKECPFRVNKVCGAACSSK [F1D]	5.41
CPESETKECPFRVNKVCGAACSSK [F1C]	4.63
TPESETKECPFRVNKVCGAACSSK [F1T]	2.73
FPESETKECPFRVNKVCHAACSSK [G18H]	2.59
FPESETKECPFRVNKVCIAACSSK [G18I]	2.1
FPESETKECPFRVNKVCPAACSSK [G18P]	2.42
FPESETKECPFRVNKVCRAACSSK [G18R]	2.43
FPESETKECPFRVNKVCCAACSSK [G18C]	2.54
FPESETKECPFRVNKVCSAACSSK [G18S]	3.42
FPESETKECPFRVNKVCYAACSSK [G18Y]	2.09
FPESETKECPFRVNKVCWAACSSK [G18W]	3.39

Variant	protein stability index
FPESETKECPFRVNNVCGAACSSK [K15N]	2.24
FPESETKECPFRVNEVCGAACSSK [K15E]	2.83
FPESETKECPFRVNSVCGAACSSK [K15S]	2.32
FPESETKECPFRVNAVCGAACSSK [K15A]	3.17
FPESETKECPFRVNYVCGAACSSK [K15Y]	2.4
FPESETKECPFRVNRVCGAACSSK [K15R]	2.76
FPESETKECPFRVNKQCGAACSSK [V16Q]	2.67
FPESETKECPFRVNKECGAACSSK [V16E]	3.12
FPESETKECPFRVNKCCGAACSSK [V16C]	2.24
FPESETKECPFRVNKLCGAACSSK [V16L]	1.86
FPESETKECPFRVNKPCGAACSSK [V16P]	2.11
FPESETKECPFRVNKGCGAACSSK [V16G]	2.9
FPESETKECPFRVNKTCGAACSSK [V16T]	2.71
FPESETKECPFRVNKVCGAYCSSK [A20Y]	2.27
FPESETKECPFRVNKVCGANCSSK [A20N]	3.18
FPESETKECPFRVNKVCGACCSSK [A20C]	2.17
FPESETKECPFRVNKVCGAGCSSK [A20G]	3.22
FPESETKECPFRVNKVCGADCSSK [A20D]	2.69
FPESETKECPFRVNKVCGATCSSK [A20T]	3.22
FPESETDECPFRVNKVCGAACSSK [K7D]	3.22
FPESETQECPFRVNKVCGAACSSK [K7Q]	2.86
FPESETLECPFRVNKVCGAACSSK [K7L]	2.5
FPESETCECPFRVNKVCGAACSSK [K7C]	3.21
FPESETAECPFRVNKVCGAACSSK [K7A]	2.43

Variant	protein stability index
FPESETWECPFRVNKVCGAACSSK [K7W]	1.34
FPESETMECPFRVNKVCGAACSSK [K7M]	2.5
FPESETHECPFRVNKVCGAACSSK [K7H]	3.36
FPESETGECPFRVNKVCGAACSSK [K7G]	2.52
FTESETKECPFRVNKVCGAACSSK [P2T]	2.26
FKESETKECPFRVNKVCGAACSSK [P2K]	4.63
FEESETKECPFRVNKVCGAACSSK [P2E]	4.59
FMESETKECPFRVNKVCGAACSSK [P2M]	3.77
FLESETKECPFRVNKVCGAACSSK [P2L]	3.57
FCESETKECPFRVNKVCGAACSSK [P2C]	2.31
FVESETKECPFRVNKVCGAACSSK [P2V]	2.13
FRESETKECPFRVNKVCGAACSSK [P2R]	4.19
FWESETKECPFRVNKVCGAACSSK [P2W]	3.64
FPESETKECPFRRNKVCGAACSSK [V13R]	3.59
FPESETKECPFRENKVCGAACSSK [V13E]	4.17
FPESETKECPFRCNKVCGAACSSK [V13C]	3.09
FPESETKECPFRINKVCGAACSSK [V13I]	2.6
FPESETKECPFRGNKVCGAACSSK [V13G]	3.81
FPESETKECPFRANKVCGAACSSK [V13A]	3.14
FPESETKECPFRHNKVCGAACSSK [V13H]	4.26
FPESETKECPFRFNKVCGAACSSK [V13F]	2.59
FPESETKECPFRMNKVCGAACSSK [V13M]	3.1
